Assay results: patent US20130171178A1 (US Dept. of Health and Human Services, published 2013)

B1: xage-1 33 peptide (peptide)
peptide: ATRVPEVWIL
notes: Synthetic 10-mer
B2: xage-1 57 peptide (peptide)
peptide: HTASPRSPVM
notes: Synthetic 10-mer
B3: 1Y xage-1 14 (peptide)
peptide: YVFPSAPSPV
B4: 2L xage-1 14 (peptide)
peptide: GLFPSAPSPV
B5: 3M xage-1 14 (peptide)
peptide: GVMPSAPSPV
B6: 1Y2L xage-1 14 (peptide)
peptide: YLFPSAPSPV
B7: 2L3M xage-1 14 (peptide)
peptide: GLMPSAPSPV

Assays:
[1] = biological target: HLA-A2 MHC class I molecule (human); experiment: T2 binding assay, surface HLA-A2 by flow cytometry (BB7.2)
[2] = biological target: HLA-A2 MHC class I molecule (human); experiment: T2 binding assay, surface HLA-A2 by flow cytometry
Procedure: Binding affinity to HLA-A2 of synthetic peptides derived from the XAGE-1 amino acid sequence was measured by using T2 cells. The T2 cell line is a T-B fusion hybridoma cell line deficient in TAP1 and TAP2 gene expression available from the ATCC under accession number CRL-1992. T2 cells suspended in Dulbecco's modified Eagles' medium (DMEM) containing 2.5% fetal calf serum (FCS) were incubated overnight with different concentrations of the peptides and 10 μg/ml of β2-microglobulin. The cells were washed twice with phosphate buffered saline (PBS) containing 2% FCS and incubated on ice with anti-HLA-A2 monoclonal antibody (BB7.2, produced by ATCC cell line HB-82) for 30 min. After a single wash, the cells were stained with FITC-labeled goat anti-mouse Ig antibody for 30 min on ice. The cells were washed twice, and expression of HLA-A2 was measured by flow cytometry. The expression level of HLA-A2 was determined as follows: mean fluorescent index (F.I.)=(mean fluorescent intensity of the sample with peptide−mean fluorescent intensity of the sample without peptide)/mean fluorescent intensity of the sample without peptide; mean fluorescent intensity=geometric mean fluorescent intensity of the sample stained with both 1st and 2nd antibody−geometric mean fluorescent intensity of the sample stained with 2nd antibody alone.
A series of peptides derived from xage-1 14 were discovered with enhanced binding to HLA-A2.

Row | Binder | F.I.50 [1] | FI50 [2]
1 | B1 | > 50 µM | –
2 | B2 | > 50 µM | –
3 | B3 | – | 2.36 µM
4 | B4 | – | 1.86 µM
5 | B5 | – | 0.28 µM
6 | B6 | – | 3.04 µM
7 | B7 | – | 0.62 µM
